This is an account of results in patent US20090036380A1 (YEDA RESEARCH AND DEVELOPMENT, published 2009).

Assay [1] concerns the target T1, recombinant PTB-domain containing Karet(1-228) truncation mutant (mouse, UniProt Q8K2Y9 1-228).
T1 construct: Recombinant protein for in-vitro precipitation; also called recombinant Karet protein; Karet PTB domain
T1 sequence: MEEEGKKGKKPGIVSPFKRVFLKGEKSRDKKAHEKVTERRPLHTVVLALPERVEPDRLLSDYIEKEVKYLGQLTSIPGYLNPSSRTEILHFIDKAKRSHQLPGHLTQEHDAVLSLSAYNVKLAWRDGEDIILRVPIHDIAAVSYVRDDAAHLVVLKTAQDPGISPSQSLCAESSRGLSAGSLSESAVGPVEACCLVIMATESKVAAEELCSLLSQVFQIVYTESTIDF
As to the kind of experiment: in-vitro precipitation with biotinylated peptide on streptavidin beads, blot anti-His.

The target of assay [2] is T2, full length Karet protein (RRS bait) (mouse, UniProt Q8K2Y9 1-453).
T2 construct: Yeast RRS construct; fusion partner not described; also called whole Karet protein
The experiment in a line: RRS screen in yeast, whole Karet protein against an embryonic mouse brain library. The source says: The Ras rescue system (RRS) method is based on translocation of a mammalian cytoplasmic Ras to the plasma membrane, resulting in activation of a viability pathway in yeast (Broder, Y. C., S. Katz, and A. Aronheim. Curr Biol, 1998. 8 (20): p. 1121-4; Aronheim, A. Methods Mol Biol, 2004. 250: p. 251-62; Hubsman, M., G. et al. Nucleic Acids Res, 2001. 29 (4): p. E18).

Ends that are not written are not given here.

B1: biotinylated synthetic TrkA juxtamembrane region peptide, position 458-484 (peptide)
peptide: MSLHFMTLGGSSLSPTEGKGSGLQGHI
modifications: also: biotinylated (position not given here)
notes: Immobilized on streptavidin beads; also called TrkA peptide
For B1, the binding result in assay [1] is given as “binds”.

B2: Cyclin D1, mRNA (other, mouse, UniProt P25322 1-295, looked up)
chain: MEHQLLCCEVETIRRAYPDTNLLNDRVLRAMLKTEETCAPSVSYFKCVQKEIVPSMRKIVATWMLEVCEEQKCEEEVFPLAMNYLDRFLSLEPLKKSRLQLLGATCMFVASKMKETIPLTAEKLCIYTDNSIRPEELLQMELLLVNKLKWNLAAMTPHDFIEHFLSKMPEADENKQTIRKHAQTFVALCATDVKFISNPPSMVAAGSVVAAMQGLNLGSPNNFLSCYRTTHFLSRVIKCDPDCLRACQEQIEALLESSLRQAQQNVDPKATEEEGEVEEEAGLACTPTDVRDVDI
notes: RRS library clone (embryonic mouse brain)
Turning to B2, the binding result in assay [2] was “binds”.

B3: Cysteine and glycine-rich protein 1 (Csrp1), mRNA (other, mouse, UniProt P97315 1-193, looked up)
chain: MPNWGGGKKCGVCQKTVYFAEEVQCEGNSFHKSCFLCMVCKKNLDSTTVAVHGEEIYCKSCYGKKYGPKGYGYGQGAGTLSTDKGESLGIKHEEAPGHRPTTNPNASKFAQKIGGSERCPRCSQAVYAAEKVIGAGKSWHKSCFRCAKCGKGLESTTLADKDGEIYCKGCYAKNFGPKGFGFGQGAGALVHSE
notes: as for B2
For the molecule B3, the binding result in assay [2] is reported as “binds”.
